To fix the notation:
B1: PBXIP1 (parent)
chain: LQQLRARLQGLEADCVRGPDGVCL

Consider 94 variants from the supplement of paper PMC10567573.
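Also: lentivirally expressed fusions sorted by FACS into six bins by GFP to DsRed ratio, PSI derived from sequencing read proportions per bin multiplied by bin number.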

Variants of B1 are the subject of this series. The series is described as follows: protein stability index of a GFP-peptide fusion (GPS, HEK-293T) (PSI 1-6); higher = more stable. Particulars: c terminus: a fixed tail appended.
LQQLRARLQGLEADCVRGPDGVEL [C23E]: the protein stability index was found to be 2.98. The value for LQQLRARLQGLEADCVRGPDGVLL [C23L] was 2.48; that for LQQLRARLQGLEADCVRGPDGVIL [C23I] was 2.78; that for LQQLRARLQGLEADCVRGPDGVKL [C23K] was 2.03. With LQQLRARLQGLEADCVRGPDGVAL [C23A], the protein stability index worked out at 2.2. The value for LQQLRARLQGLEADCVRGPDGVML [C23M] was 2.23; that for LQQLRARLQGLEADCVRGPDGVHL [C23H] was 2.66.

In the case of LQQLRARLQQLEADCVRGPDGVCL [G10Q], the protein stability index amounted to 2.53. The value for LQQLRARLQILEADCVRGPDGVCL [G10I] was 1.65. The value for LQQLRARLQELEADCVRGPDGVCL [G10E] was 2.64; that for LQQLRARLQWLEADCVRGPDGVCL [G10W] was 2.15; that for LQQLRARLQALEADCVRGPDGVCL [G10A] was 1.24.

Take LQQLRARLQDLEADCVRGPDGVCL [G10D]: the protein stability index is 2.35.

LQQLRARLQMLEADCVRGPDGVCL [G10M]: the protein stability index turned out to be 2.02. LQQLRARLQGLEADCVPGPDGVCL [R17P]: the protein stability index was 3.52.

For the variant LQQLRARLQGLEADCVGGPDGVCL [R17G], the protein stability index was 2.55. The value for LQQLRARLQGLEADCVHGPDGVCL [R17H] was 2.93. The value for LQQLRARLQGLEADCVFGPDGVCL [R17F] was 2.12; that for LQQLRARLQGLEADCVMGPDGVCL [R17M] was 1.79. The value for LQQLRARLQGLEADCVCGPDGVCL [R17C] was 2.04; that for LQQLRARLQGLEADCVYGPDGVCL [R17Y] was 2.47; that for LQQLRARLQGLEADCVQGPDGVCL [R17Q] was 3.04. Turning to LQQLRARLQGLEADCVNGPDGVCL [R17N], the protein stability index turned out to be 3.03.

In the case of LQQLRARLQGLEADCVEGPDGVCL [R17E], the protein stability index worked out at 1.86. The value for LQQLRARLQGLEADCVIGPDGVCL [R17I] was 1.82.

On to LQQLRARLQGLEADCVTGPDGVCL [R17T], for which the protein stability index is 3.19. The value for LQQLRARLQGLEADCVKGPDGVCL [R17K] was 1.86; that for LQQLRARLQGLEADCVWGPDGVCL [R17W] was 1.81. The value for LQQLRARLQGLEADCVVGPDGVCL [R17V] was 2.2.

As to LQQLRARLQGLEADCVLGPDGVCL [R17L], the protein stability index stood at 1.98. Turning to LQQLRARLQGLEADCLRGPDGVCL [V16L], the protein stability index was determined as 1.59. The value for LQQLRARLQGLEADCPRGPDGVCL [V16P] was 1.64.

As for LQQLRARLQGLEADCIRGPDGVCL [V16I], the protein stability index came out at 2.38. The value for LQQLRARLQGLEADCSRGPDGVCL [V16S] was 1.84; that for LQQLRARLQGLEADCTRGPDGVCL [V16T] was 2.51; that for LQQLRARLQGLEADCQRGPDGVCL [V16Q] was 2.95. The value for LQQLRARLQGLEADCDRGPDGVCL [V16D] was 2.87.

Consider LQQLRARLQGLEADCFRGPDGVCL [V16F], for which the protein stability index was 2.28. The value for LQQLRARLQGLEADCNRGPDGVCL [V16N] was 2.62; that for LQQLRARLQGLEADCCRGPDGVCL [V16C] was 1.78; that for LQQLRARLQGLEADCHRGPDGVCL [V16H] was 1.74. The value for LQQLRARLQGLEADCWRGPDGVCL [V16W] was 1.46; that for LQQLRARLQGLEADCMRGPDGVCL [V16M] was 1.81. The value for LQQLRARLQGLEADCYRGPDGVCL [V16Y] was 2.57; that for LQQLRARLQGLEADCERGPDGVCL [V16E] was 3.21; that for LQQLRARLQGLEADCVRYPDGVCL [G18Y] was 1.93. LQQLRARLQGLEADCVRQPDGVCL [G18Q]: the protein stability index came to 2.9.

Turning to LQQLRARLQGLEADCVRVPDGVCL [G18V], the protein stability index is 3.65. The value for LQQLRARLQGLEADCVRHPDGVCL [G18H] was 2.39; that for LQQLRARLQGLEADCVRMPDGVCL [G18M] was 2.32; that for LQQLRARLQGLEADCVRIPDGVCL [G18I] was 1.87. The value for LQQLRARLQGLEADCVRKPDGVCL [G18K] was 2.27; that for LQQLRARLQGLEADCVRDPDGVCL [G18D] was 3.74. The value for LQQLRARLQGLEADCVRCPDGVCL [G18C] was 2.23; that for LQQLRARLQGLEADCVRAPDGVCL [G18A] was 2.97; that for LQQLRARLQGLEADCVRPPDGVCL [G18P] was 1.78.

As for LQQLRARLQGLEADCVRWPDGVCL [G18W], the protein stability index came to 2.54. The value for LQQLRARLQGLEADCVRFPDGVCL [G18F] was 1.47. The value for LQQLRARLQGLEADCVRGPDGACL [V22A] was 2.03. For the variant LQQLRARLQGLEADCVRGPDGMCL [V22M], the protein stability index is 2.13.

For LQQLRARLQGLEADCVRGPDGFCL [V22F], the protein stability index was determined as 1.34. In the case of LQQLRARLQGLEADCVRGPDGRCL [V22R], the protein stability index was determined as 3.41.

As for LQQLRARLQGLEADCVRGPDGGCL [V22G], the protein stability index stood at 1.78.

Take LQQLRARLQGLEADCVRGPDGICL [V22I]: the protein stability index was 1.96. In the case of LQQLRARLQGLEADCVRGPDGTCL [V22T], the protein stability index turned out to be 2.57.

As to LQQLRARLQGLEADCVRGPDGYCL [V22Y], the protein stability index amounted to 1.52.

With LQQLRARLQGLEADCVRGPDGLCL [V22L], the protein stability index was determined as 1.46. The value for LQQLRARLQGLEADCVRGPDGCCL [V22C] was 1.84; that for LQQLRARLQGLEADCVRGPDGSCL [V22S] was 3.23; that for LQQLRARLQGLEADCVRGPDGQCL [V22Q] was 2.83.

Regarding LQQLRARLQGLEADCVRGPDGKCL [V22K], the protein stability index stood at 2.39. The value for LQQLRARLQGLEADCVRGPDQVCL [G21Q] was 3.34; that for LQQLRARLQGLEADCVRGPDSVCL [G21S] was 3.94; that for LQQLRARLQGLEADCVRGPDRVCL [G21R] was 2.56. The value for LQQLRARLQGLEADCVRGPDIVCL [G21I] was 1.75. The value for LQQLRARLQGLEADCVRGPDAVCL [G21A] was 1.28. Regarding LQQLRARLQGLEADCVRGPDKVCL [G21K], the protein stability index amounted to 3.18. On to LQQLRARLQGLEADCVRGPDWVCL [G21W], for which the protein stability index worked out at 2.07. For the variant LQQLRARLQGLEADCVRGPDTVCL [G21T], the protein stability index was found to be 1.99.

As to LQQLRARLQGLEADCVRGPDNVCL [G21N], the protein stability index was found to be 2.69. The value for LQQLRARLQGLEADCVRGPDYVCL [G21Y] was 1.28; that for LQQLRARLSGLEADCVRGPDGVCL [Q9S] was 1.37. The value for LQQLRARLHGLEADCVRGPDGVCL [Q9H] was 2.42. The value for LQQLRARLGGLEADCVRGPDGVCL [Q9G] was 2.28; that for LQQLRARLPGLEADCVRGPDGVCL [Q9P] was 2.8.

For LQQLRARLAGLEADCVRGPDGVCL [Q9A], the protein stability index turned out to be 1.43. The value for LQQLRARLDGLEADCVRGPDGVCL [Q9D] was 2.86; that for LQQLRARLTGLEADCVRGPDGVCL [Q9T] was 1.04; that for LQQLRARLRGLEADCVRGPDGVCL [Q9R] was 1.17.

Consider LQQLRARLKGLEADCVRGPDGVCL [Q9K], for which the protein stability index was found to be 1.87.

Turning to LQQLRARLWGLEADCVRGPDGVCL [Q9W], the protein stability index amounted to 1.86. The value for LQQLRARLEGLEADCVRGPDGVCL [Q9E] was 1.6; that for LQQLRARLCGLEADCVRGPDGVCL [Q9C] was 3.05.

As to LQQLRARLQGLHADCVRGPDGVCL [E12H], the protein stability index came to 1.35.
